In patent US20130345294:

Biological target: GAVP(N56K+C71V) N56K,C71V (VIVID numbering) (artificial) (UniProt Q04206)
Assay: cell_activity

Chain of UniProt Q04206 (Q04206 whole entry, stated change not applied): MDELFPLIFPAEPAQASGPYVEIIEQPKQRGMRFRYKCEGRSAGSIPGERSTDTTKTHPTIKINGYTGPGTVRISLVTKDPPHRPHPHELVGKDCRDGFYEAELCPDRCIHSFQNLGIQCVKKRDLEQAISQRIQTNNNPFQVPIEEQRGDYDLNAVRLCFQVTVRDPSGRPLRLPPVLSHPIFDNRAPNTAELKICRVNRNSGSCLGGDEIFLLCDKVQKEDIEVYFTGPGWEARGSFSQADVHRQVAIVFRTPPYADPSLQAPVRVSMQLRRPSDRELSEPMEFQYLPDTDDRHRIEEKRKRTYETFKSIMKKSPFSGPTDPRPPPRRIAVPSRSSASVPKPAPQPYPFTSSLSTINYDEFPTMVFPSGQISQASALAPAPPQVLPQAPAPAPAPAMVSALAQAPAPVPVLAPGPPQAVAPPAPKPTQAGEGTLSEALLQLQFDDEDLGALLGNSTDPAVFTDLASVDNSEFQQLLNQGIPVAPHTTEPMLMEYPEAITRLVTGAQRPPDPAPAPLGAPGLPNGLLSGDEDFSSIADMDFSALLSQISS

5xUASG-TATA-Fluc
activity (HEK293 light/dark induction, also active in NIH3T3 and COS-7): 200 fold

TCTAGACGGAGTACTGTCCTCCGAGCGGAGTACTGTCCTCCGACTCGAGCGGAGTACTGTCCTCCGATCGGAGTACTGTCCTCCGCGAATTCCGGAGTACTGTCCTCCGAAGACGCTAGCGGGGGGCTATAAAAGGGGGTGGGGGCGTTCGTCCTCACTCTAGATCTGCGATCTAAGTAAGCTTGGCCACCATGGGAGTCAAAGTTCTGTTTGCCCTGATCTGCATCGCTGTGGCCGAGGCCAAGCCCACCGAGAACAACGAAGACTTCAACATCGTGGCCGTGGCCAGCAACTTCGCGACCACGGATCTCGATGCTGACCGCGGGAAGTTGCCCGGCAAGAAGCTGCCGCTGGAGGTGCTCAAAGAGATGGAAGCCAATGCCCGGAAAGCTGGCTGCACCAGGGGCTGTCTGATCTGCCTGTCCCACATCAAGTGCACGCCCAAGATGAAGAAGTTCATCCCAGGACGCTGCCACACCTACGAAGGCGACAAAGAGTCCGCACAGGGCGGCATAGGCGAGGCGATCGTCGACATTCCTGAGATTCCTGGGTTCAAGGACTTGGAGCCCATGGAGCAGTTCATCGCACAGGTCGATCTGTGTGTGGACTGCACAACTGGCTGCCTCAAAGGGCTTGCCAACGTGCAGTGTTCTGACCTGCTCAAGAAGTGGCTGCCGCAACGCTGTGCGACCTTTGCCAGCAAGATCCAGGGCCAGGTGGACAAGATCAAGGGGGCCGGTGGTGACTAA (double strand) [5xUASG-TATA-Gluc]
activity (HEK293, Gluc after 12 h light, 30-fold after 3 h): 100 fold
